PMC9143740

Molecular target: Interleukin 13 receptor subunit alpha 2 (IL-13Rα2) (human (endogenous in patient-derived HGG cell lines)) (UniProt Q14627)
Sequence of UniProt Q14627 (Q14627 27-380): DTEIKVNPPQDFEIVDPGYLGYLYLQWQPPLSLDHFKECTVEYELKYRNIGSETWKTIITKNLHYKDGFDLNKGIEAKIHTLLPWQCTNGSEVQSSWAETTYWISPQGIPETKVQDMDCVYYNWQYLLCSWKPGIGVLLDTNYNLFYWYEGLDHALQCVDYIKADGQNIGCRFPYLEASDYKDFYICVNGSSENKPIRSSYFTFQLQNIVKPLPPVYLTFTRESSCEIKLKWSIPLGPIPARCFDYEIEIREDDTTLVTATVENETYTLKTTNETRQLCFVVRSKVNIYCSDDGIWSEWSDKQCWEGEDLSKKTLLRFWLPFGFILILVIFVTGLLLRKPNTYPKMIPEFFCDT

**Q.** How did the IC50 of cell viability (CellTiter-Glo, 72 h), PED17 cells (DMG, IL-13Rα2-high) turn out when GB-13 (IL13.E13K-PE4E) was run?
**A.** 0.02 ng/mL
